Assay results: US20170044238A1 (NATIONAL RESEARCH COUNCIL OF CANADA, published 2017)

Legend:
human lysozyme = molecular target: T1, human lysozyme (human, UniProt P61626 19-148); assay: phage ELISA, phage-displayed VL on immobilized human lysozyme
T1 construct: Bought; passed through Superdex 75 before SPR
T1 sequence (looked up): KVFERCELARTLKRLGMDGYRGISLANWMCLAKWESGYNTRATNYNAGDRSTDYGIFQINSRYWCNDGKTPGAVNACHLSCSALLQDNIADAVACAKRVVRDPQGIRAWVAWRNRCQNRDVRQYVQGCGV

human serum albumin = molecular target: T2, human serum albumin (human, UniProt P02768 25-609); assay: SPR (Biacore 3000), VL over immobilized human serum albumin
T2 construct: also called HSA
T2 sequence (P02768 25-609 limits assumed): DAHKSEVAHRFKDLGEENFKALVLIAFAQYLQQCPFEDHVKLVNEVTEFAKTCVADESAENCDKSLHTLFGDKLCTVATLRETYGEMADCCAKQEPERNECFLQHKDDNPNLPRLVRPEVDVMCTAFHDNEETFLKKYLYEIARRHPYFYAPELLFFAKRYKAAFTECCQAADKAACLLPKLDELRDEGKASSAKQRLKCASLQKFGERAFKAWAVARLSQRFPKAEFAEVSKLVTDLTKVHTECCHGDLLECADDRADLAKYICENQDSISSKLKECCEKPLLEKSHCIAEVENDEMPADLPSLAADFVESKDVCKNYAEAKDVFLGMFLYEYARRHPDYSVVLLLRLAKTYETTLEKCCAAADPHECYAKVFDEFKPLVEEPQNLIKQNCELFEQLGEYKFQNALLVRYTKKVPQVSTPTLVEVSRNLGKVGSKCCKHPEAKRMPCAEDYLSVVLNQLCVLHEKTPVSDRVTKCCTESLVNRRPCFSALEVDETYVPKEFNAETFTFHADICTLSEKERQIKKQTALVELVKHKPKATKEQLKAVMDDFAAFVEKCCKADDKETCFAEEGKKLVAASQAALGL
Experimental: (§1) The KD of the VL against human serum albumin was determined by surface plasmon resonance as described for other domains above. Briefly, the binding of the VL to immobilized human serum albumin was determined by SPR using the BIACORE 3000 (GE Healthcare). Approximately 1,600 RUs of human serum albumin, 1,900 RUs of bovine serum albumin and 2,200 RUs of ovalbumin were immobilized on a research grade CMS sensor chip. An ethanolamine blocked surface was prepared, as a reference, in exactly the same manner as the protein surfaces. Immobilizations were carried out at concentrations of 20 μg/mL in 10 mM acetate buffer pH 4.5 using the amine coupling kit supplied by the manufacturer. The VL was passed through a Superdex 75 column (GE Healthcare) to eliminate any possible aggregates prior to Biacore analysis. For the binding studies, analyses were carried out at 25° C. in 10 mM HEPES, pH 7.4 containing 150 mM NaCl, 3 mM EDTA and 0.005% surfactant P20. The flow rates used were 40 μL/min and sample volumes were 60 μL. For regeneration the surface was washed for 10 min with the running buffer. Data were analyzed with BIAevaluation 4.1 software.

ovalbumin = molecular target: T3, ovalbumin (UniProt P01012 2-386); assay: SPR (Biacore 3000), VL over immobilized ovalbumin (about 2,200 RUs)
T3 sequence (looked up): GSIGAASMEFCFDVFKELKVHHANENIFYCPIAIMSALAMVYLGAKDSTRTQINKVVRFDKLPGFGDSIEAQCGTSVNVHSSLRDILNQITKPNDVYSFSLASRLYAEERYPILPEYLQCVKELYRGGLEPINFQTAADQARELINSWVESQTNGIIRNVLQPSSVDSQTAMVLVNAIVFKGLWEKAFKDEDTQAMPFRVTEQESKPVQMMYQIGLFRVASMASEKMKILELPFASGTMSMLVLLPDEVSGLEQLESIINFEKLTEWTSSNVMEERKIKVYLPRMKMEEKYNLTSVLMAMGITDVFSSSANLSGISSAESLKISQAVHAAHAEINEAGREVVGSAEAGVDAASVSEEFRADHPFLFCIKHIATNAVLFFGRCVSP
Experimental: as §1

bovine serum albumin = bovine serum albumin (bovine, UniProt P02769 25-607); assay: SPR (Biacore 3000), VL over immobilized bovine serum albumin (about 1,900 RUs)
Chain of bovine serum albumin (P02769 25-607 limits assumed): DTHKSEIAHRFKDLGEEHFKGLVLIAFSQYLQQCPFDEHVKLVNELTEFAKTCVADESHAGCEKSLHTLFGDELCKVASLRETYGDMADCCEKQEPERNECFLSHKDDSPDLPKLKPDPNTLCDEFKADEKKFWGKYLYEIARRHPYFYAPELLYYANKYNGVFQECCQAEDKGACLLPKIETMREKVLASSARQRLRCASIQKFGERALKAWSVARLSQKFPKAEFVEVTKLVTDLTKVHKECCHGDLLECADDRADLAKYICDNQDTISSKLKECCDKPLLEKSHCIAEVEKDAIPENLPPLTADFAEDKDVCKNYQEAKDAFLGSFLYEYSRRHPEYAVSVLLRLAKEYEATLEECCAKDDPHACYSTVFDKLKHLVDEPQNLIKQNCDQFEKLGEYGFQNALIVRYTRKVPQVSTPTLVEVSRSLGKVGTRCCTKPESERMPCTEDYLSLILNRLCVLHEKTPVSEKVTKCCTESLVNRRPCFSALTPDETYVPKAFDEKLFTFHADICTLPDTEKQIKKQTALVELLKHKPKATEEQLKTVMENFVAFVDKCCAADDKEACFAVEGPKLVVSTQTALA
Experimental: as §1

B1: HVLHLFL (antibody, V domains shown)
VL: DIQMTQSPSSLSASVGDRVTITCLASQSIFLYLDWYQQKPGKAPKLLCFFASTLESGVPSRFSCSGSGTDFTLTISNLQPEDFATYYCQQSYSTPRTFGHGTKVTVL
notes: Anti-human lysozyme VL from the HVLP324S library; KD not determined
Human lysozyme
  binding result: binds

B2: HVLHSA1 (antibody, V domains shown)
VL: DIQMTQSPSSLSASVGDRVTITCRASQSISTYLNWYQQKPGKAPKLLCFGASRLNSGVPSRFSCSGSGTDFTLTISNLQPEDFATYYCRQLFPLPDRRTFGHGTKVTVL
notes: Anti-human serum albumin VL single-domain antibody from the HVLP324S library (Cys48/Cys64); also called anti-human serum albumin VL; not shown: C-terminal His6 tag
Human serum albumin
  Kd: 0.8 µM
ovalbumin
  binding result: no binding
Bovine serum albumin
  binding result: no binding
